The source of these data is publication PMC11602973, “Structural basis of nucleic acid recognition by the N-terminal cold shock domain of the plant glycine-rich protein AtGRP2”.

One data set concerns the target T1, AtGRP2-CSD1-90 F37A (Arabidopsis thaliana, UniProt Q41188 1-90, F37A).
T1 sequence: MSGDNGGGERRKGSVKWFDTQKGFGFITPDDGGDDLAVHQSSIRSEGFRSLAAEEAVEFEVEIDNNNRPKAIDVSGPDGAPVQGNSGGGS
Briefly: fluorescence anisotropy; no saturation; text: binding abolished; 20 mM sodium phosphate pH 6.5, 50 mM NaCl, 25 C (fluorescence); NMR titrations in the same buffer plus 250 uM PMSF, 3 mM NaN3, 5% D2O, 298 K. To be noted: protein: recombinant; tags: N-terminal Trx(6 aa)-His6-TEV tag, cleaved; label: 5'-rhodamine.

In a further data set the target is T2, AtGRP2-CSD1-90 W17A (Arabidopsis thaliana, UniProt Q41188 1-90, W17A).
T2 sequence: T1 sequence with W17A, A37F
The data set is described as above. To be noted: protein: recombinant; tags: N-terminal Trx(6 aa)-His6-TEV tag, cleaved; label: 5'-rhodamine.

For the next data set, the target named is T3, AtGRP2-CSD1-90 F26A (Arabidopsis thaliana, UniProt Q41188 1-90, F26A).
T3 sequence: T1 sequence with F26A, A37F
Described as above. To be noted: protein: recombinant; tags: N-terminal Trx(6 aa)-His6-TEV tag, cleaved; label: 5'-rhodamine.

The target of the next data set is T4, AtGRP2-CSD1-90 F48A (Arabidopsis thaliana, UniProt Q41188 1-90, F48A).
T4 sequence: T1 sequence with A37F, F48A
Briefly: fluorescence anisotropy; 20 mM sodium phosphate pH 6.5, 50 mM NaCl, 25 C (fluorescence); NMR titrations in the same buffer plus 250 uM PMSF, 3 mM NaN3, 5% D2O, 298 K. To be noted: protein: recombinant; tags: N-terminal Trx(6 aa)-His6-TEV tag, cleaved; label: 5'-rhodamine.

For data set [1], the target named is T5, AtGRP2-CSD1-90 WT (Arabidopsis thaliana, UniProt Q41188 1-90).
T5 sequence: T1 sequence with A37F
Described as above. To be noted: protein: recombinant; tags: N-terminal Trx(6 aa)-His6-TEV tag, cleaved; label: 5'-rhodamine.

The next data set addresses T6, AtGRP2-CSD1-90 H39A (Arabidopsis thaliana, UniProt Q41188 1-90, H39A).
T6 sequence: T1 sequence with A37F, H39A
The description is as above. To be noted: protein: recombinant; tags: N-terminal Trx(6 aa)-His6-TEV tag, cleaved; label: 5'-rhodamine.

The target in another data set is T7, AtGRP2-CSD1-90 R49A (Arabidopsis thaliana, UniProt Q41188 1-90, R49A).
T7 sequence: T1 sequence with A37F, R49A
Described as above. To be noted: protein: recombinant; tags: N-terminal Trx(6 aa)-His6-TEV tag, cleaved; label: 5'-rhodamine.

A further data set addresses T8, AtGRP2-CSD1-79 (Arabidopsis thaliana, UniProt Q41188 1-79).
T8 sequence: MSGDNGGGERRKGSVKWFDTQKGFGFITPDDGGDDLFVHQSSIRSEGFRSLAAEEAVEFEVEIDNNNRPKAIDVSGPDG
The data set can be described thus: intrinsic Trp fluorescence quenching; 20 mM sodium phosphate pH 6.5, 50 mM NaCl, 25 C (fluorescence); NMR titrations in the same buffer plus 250 uM PMSF, 3 mM NaN3, 5% D2O, 298 K. To be noted: protein: recombinant; tags: N-terminal Trx(6 aa)-His6-TEV tag, cleaved.

Data set [2] addresses T5, AtGRP2-CSD1-90 WT. The data set can be described thus: NMR HSQC titration; up to 2x molar excess; 20 mM sodium phosphate pH 6.5, 50 mM NaCl, 25 C (fluorescence); NMR titrations in the same buffer plus 250 uM PMSF, 3 mM NaN3, 5% D2O, 298 K. To be noted: protein: recombinant; tags: N-terminal Trx(6 aa)-His6-TEV tag, cleaved.

Residue numbers refer to the chain shown, from its start.

As for TTTTTTT (ssDNA) [Rho-T7], the binding result with AtGRP2-CSD1-90 F37A, in the data set with AtGRP2-CSD1-90 W17A and with AtGRP2-CSD1-90 F26A was “no binding” throughout. Moreover, the equilibrium dissociation constant (Kd) with AtGRP2-CSD1-90 F48A worked out at 38.6 ± 6.3 µM; with AtGRP2-CSD1-90 WT [1], 17.2 ± 2.4 µM; with AtGRP2-CSD1-90 H39A, 210 ± 36.8 µM; with AtGRP2-CSD1-90 R49A, 45.7 ± 6.8 µM.

Take UUUUUUU (ssRNA) [Rho-U7]: the dissociation constant Kd with AtGRP2-CSD1-90 WT [1] was 76.8 ± 9.7 µM.

On to TTTTTTT (ssDNA) [T7], for which, in the data set with AtGRP2-CSD1-79, the Kd is 22 ± 2.4 µM.

On to GGGGGGG (ssDNA) [G7], for which the binding result with AtGRP2-CSD1-90 WT [2] is listed as “no binding”.

As for AAAAAAA (ssDNA) [A7], the binding result with AtGRP2-CSD1-90 WT [2] is recorded as “no binding”.

Broadly, the Kd is a measure of binding affinity in units of concentration.
